Assay results: patent US20040191811A1, “Methods for measuring levels of uridine-diphosphate-N-acetylglucosamine and activity of inhibitors thereof” (priority 2002, published 2004)

Legend:
Assay type in all cases: biochemical, human
Conditions in all cases: other: extracts from transfected SF9 insect cells, 60 minutes at 37° C.
[1] = substrate: NC(=O)CC[C@H](N)C(=O)O; test: Substrate Km determination for GFAT-alpha (Lineweaver-Burk plot)
Description: (§1) FIG. 3 illustrates the effect of varying concentrations of the substrates glutamine and fructose 6-phosphate on the enzyme activity of GFAT-alpha and GFAT-beta. FIG. 3A is a graph illustrating incubation with 10 μl glutamine 200 mM+10 μl fructose 6-phosphate 3.125, 6.25, 12.5, 25, 50, 100, and 200 mM. FIG. 3B is a graph illustrating incubation with 10 μl fructose 6-phosphate 200 mM+10 μl glutamine 3.125, 6.25, 12.5, 25, 50, 100, and 200 mM. 10 μl of GFAT-alpha and 5 μl of GFAT-beta extracts from transfected SF9 insect cells are incubated with 1) 10 μl glutamine 200 mM+10 μl fructose 6-phosphate 3.125, 6.25, 12.5, 25, 50, 100, and 200 mM, and 2) 10 μl fructose 6-phosphate 200 mM+10 μl glutamine 3.125, 6.25, 12.5, 25, 50, 100, and 200 mM in an incubation media containing 10 μl PBS 10×, 10 μl EDTA 50 mM, 10 μl DTT 10 mM, and water to 100 μl. The plate is sealed with a Costar plate sealer and incubated for 60 minutes at 37° C. by floating on a water bath. Additional incubation mixture is kept on ice to add to standard and control samples. […] After a 20-minute incubation at 37° C., the OD is determined for each well at 585 nm.
(§2) FIG. 3C is a table illustrating the Km values of the substrates for the GFAT-alpha and GFAT-beta enzymes calculated from the data generated in FIGS. 3A and 3B. […]

[2] = substrate: O=C(CO)[C@@H](O)[C@H](O)[C@H](O)COP(=O)(O)O; test: as above
Description: as §1, §2

[3] = substrate: NC(=O)CC[C@H](N)C(=O)O; test: Substrate Km determination for GFAT-beta (Lineweaver-Burk plot)
Description: as §1, §2

[4] = substrate: O=C(CO)[C@@H](O)[C@H](O)[C@H](O)COP(=O)(O)O; test: as above
Description: as §1, §2

| Protein | Km [1] [µM] | Km [2] [µM] | Km [3] [µM] | Km [4] [µM] |
| --- | --- | --- | --- | --- |
| GFAT-alpha (Homo sapiens) (protein, made in house; host or cells: SF9 insect cells (sonicated, centrifuged cell extract, not purified)) MCGIFAYLNYHVPRTRREILETLIKGLQRLEYRGYDSAGVGFDGGNDKDWEANACKIQLIKKKGKVKALDEEVHKQQDMDLDIEFDVHLGIAHTRWATHGEPSPVNSHPQRSDKNNEFIVIHNGIITNYKDLKKFLESKGYDFESETDTETIAKLVKYMYDNRESQDTSFTTLVERVIQQLEGAFALVFKSVHFPGQAVGTRRGSPLLIGVRSEHKLSTDHIPILYRTGKDKKGSCNLSRVDSTTCLFPVEEKAVEYYFASDASAVIEHTNRVIFLEDDDVAAVVDGRLSIHRIKRTAGDHPGRAVQTLQMELQQIMKGNFSSFMQKEIFEQPESVVNTMRGRVNFDDYTVNLGGLKDHIKEIQRCRRLILIACGTSYHAGVATRQVLEELTELPVMVELASDFLDRNTPVFRDDVCFFLSQSGETADTLMGLRYCKERGALTVGITNTVGSSISRETDCGVHINAGPEIGVASTKAYTSQFVSLVMFALMMCDDRISMQERRKEIMLGLKRLPDLIKEVLSMDDEIQKLATELYHQKSVLIMGRGYHYATCLEGALKIKEITYMHSEGILAGELKHGPLALVDKLMPVIMIIMRDHTYAKCQNALQQVVARQGRPVVICDKEDTETIKNTKRTIKVPHSVDCLQGILSVIPLQLLAFHLAVLRGYDVDFPRNLAKSVTVE | 1490 | 1850 |  |  |
| GFAT-beta (Homo sapiens) (protein, made in house; host or cells: SF9 insect cells (sonicated, centrifuged cell extract, not purified)) MCGIFAYMNYRVPRTRKEIFETLIKGLQRLEYRGYDSAGVAIDGNNHEVKERHIQLVKKRGKVKALDEELYKQDSMDLKVEFETHFGIAHTRWATHGVPSAVNSHPQRSDKGNEFVVIHNGIITNYKDLRKFLESKGYEFESETDTETIAKLIKYVFDNRETEDITFSTLVERVIQQLEGAFALVFKSVHYPGEAVATRRGSPLLIGVRSKYKLSTEQIPILYRTCTLENVKNICKTRMKRLDSSACLHAVGDKAVEFFFASDASAIIEHTNRVIFLEDDDIAAVADGKLSIHRVKRSASDDPSRAIQTLQMELQQIMKGNFSAFMQKEIFEQPESVFNTMRGRVNFETNTVLLGGLKDHLKEIRRCRRLIVIGCGTSYHAAVATRQVLEELTELPVMVELASDFLDRNTPVFRDDVCFFISQSGETADTLLALRYCKDRGALTVGVTNTVGSSISRETDCGVHINAGPEIGVASTKAYTSQFISLVMFGLMMSEDRISLQNRRQEIIRGLRSLPELIKEVLSLEEKIHDLALELYTQRSLLVMGRGYNYATCLEGALKIKEITYMHSEGILAGELKHGPLALIDKQMPVIMVIMKDPCFAKCQNALQQVTARQGRPIILCSKDDTESSKFAYKTIELPHTVDCLQGILSVIPLQLLSFHLAVLRGYDVDFPRNLAKSVTVE |  |  | 1990 | 6800 |
